Article PMC7404976

Target: MBP-Vip3Aa11(200-end), the C-terminal fragment of Vip3A toxin with an N-terminal 6xHis-MBP tag (Bacillus thuringiensis strain C9)
Assay: crystal structure; MBP-Vip3Aa(200-end) 7 mg/mL, hanging drop at 18 °C, 0.1 M sodium acetate pH 4.2, 0.5 M potassium formate, 0.1 M ammonium sulfate, 11% PEG4000; space group P21, four molecules in one asymmetric unit, 3.2 Å

Substance: MBP-Vip3Aa11(200-end), the C-terminal fragment of Vip3A toxin with an N-terminal 6xHis-MBP tag (domain or fragment)
- stoichiometry N: 2
